Results: patent publication US20230295271A1 (UNIVERSITY OF SOUTHERN CALIFORNIA, published 2023)

Tests used:
[1] = target: T1, recombinant mouse artemin protein (Ala112-Gly224 fragment) (mouse, UniProt Q9Z0L2 112-224); assay: SPR (Biacore T100), purified VHH and mouse artemin, 1:1 model
T1 construct: range 112-224; Bought as lyophilized powder from R&D Systems
T1 sequence (looked up): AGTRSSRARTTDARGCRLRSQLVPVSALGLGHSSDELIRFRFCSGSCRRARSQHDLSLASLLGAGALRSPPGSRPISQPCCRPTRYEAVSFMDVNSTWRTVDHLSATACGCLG
Description: (§1) In some cases, scFv/VHH were further purified by gel filtration using Superdex 75 column (GE Healthcare). Proteins were concentrated using Amicon Ultra-15 10 kDa centrifugal filter unit (Millipore) and stored in PBS at −70° C. Titration ELISA. Titration ELISA was used to measure binding of purified scFv to GLP-1R. GLP-1R immobilization in a 96 well plate and blocking was carried out as described for phage ELISA. A purified scFv was prepared at varying concentrations (from 1 nM to 3 μM) in 2% MPBS. 100 μl scFv aliquot of each concentration was added to a well and incubated at RT for 1.5 h. The plate was then washed with TPBS and PBS three times each. Primary anti His-tag Mouse mAb (Cell signaling Technology, Inc.) was diluted 1:250 in 2% MPBS and added into each well. […] The absorbance was read at 450 nm, using SpectraMax iD5 microplate reader (Molecular Devices, LLC). The dissociation constant Kd was calculated according to a published protocol. […] Binding of purified VHH nanobodies to Artemin and to untagged FAAH proteins was determined using Biacore T100 instrument (GE Healthcare). […] Kinetic constants for binding interaction were determined by fitting the sensorgrams with 1:1 binding model using Biacore T100 evaluation software, version 2.0 (GE healthcare).

[2] = target: T2, human fatty acid amide hydrolase (FAAH), amino acids 30-579 (human, UniProt O00519 30-579); assay: SPR (Biacore T100), compared with parent A3 nanobody
T2 construct: range 30-579; Expressed in E. coli as an MBP fusion; The MBP tag was cleaved with Factor Xa, and SPR used the untagged FAAH; also called untagged FAAH; purified human FAAH protein
T2 sequence (looked up): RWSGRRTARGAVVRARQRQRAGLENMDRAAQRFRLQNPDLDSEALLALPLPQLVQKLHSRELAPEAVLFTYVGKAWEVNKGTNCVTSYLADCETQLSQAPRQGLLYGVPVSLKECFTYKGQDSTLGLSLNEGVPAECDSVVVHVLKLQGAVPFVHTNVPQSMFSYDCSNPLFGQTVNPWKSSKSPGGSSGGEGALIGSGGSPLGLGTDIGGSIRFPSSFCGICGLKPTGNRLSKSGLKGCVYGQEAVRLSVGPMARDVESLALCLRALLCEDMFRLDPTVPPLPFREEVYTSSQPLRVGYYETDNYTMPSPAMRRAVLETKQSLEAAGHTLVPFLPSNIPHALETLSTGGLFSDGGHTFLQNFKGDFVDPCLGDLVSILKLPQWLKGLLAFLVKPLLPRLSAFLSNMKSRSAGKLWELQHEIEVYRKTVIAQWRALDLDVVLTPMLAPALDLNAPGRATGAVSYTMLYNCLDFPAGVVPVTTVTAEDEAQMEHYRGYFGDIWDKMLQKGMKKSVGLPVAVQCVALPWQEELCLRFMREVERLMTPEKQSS
Description: as §1

[3] = target: T2, human fatty acid amide hydrolase …; assay: SPR (Biacore T100), purified VHH and untagged FAAH, 1:1 model
Description: as §1

[4] = target: T3, human Glucagon-like peptide-1 receptor (GLP-1R), purified His6-tagged protein (human, UniProt P43220 24-463, limits assumed); assay: titration ELISA, GLP-1R coated on the plate, purified scFv titrated; apparent Kd
T3 construct: Recombinant human His6-tagged GLP-1R purified from Sf9 biomass and immobilised on the plate for ELISA; also called purified GLP-1R protein

[5] = target: T3, human Glucagon-like peptide-1 receptor …; assay: titration ELISA, apparent Kd compared with the parental scFv

B1: LM52 VHH nanobody (VHH)
VHH: VQLVESGGGLVQAGASLRLSCAASGGTLVNSSMGWFRQAPGKERDFVATINWRGDTTWYGESVKGRFSISRDNTKNMVYLQMNSLKPEDTAVYYCAVYRTRYYTGRRMMSPDEYDVWGQGTQVTVHH
notes: From the mutagenized llama VHH library; likely a mutant variant of LU5
Q: Which Kd [1] does the source give for B1 here?
A: 102 nM

B2: OD1 VHH nanobody (VHH)
VHH: VQLVESGGGLVQAGGSLRLSCAASGRTFSDNTMAWHRQGPGKQRGLVAFITTGGRTVYTDSVKGRFIISRDNAKNTGFLQMNSLKPEDTAVYYCYVAGNWGQGTQVTVHH
notes: Purified soluble His6-tagged llama VHH; also called mutated VHH clone (OD1)
Q: For B2, which “fold increase in FAAH affinity compared to parent VHH A3” value [2] is on record?
A: ~2.4 fold

Q: What about the Kd [3] of the same binder?
A: 0.65 nM

B3: GHM33 scFv (scFv)
scFv: VQLVQSGAEVKKPGSSVKVSCKASGGTFSSYAISWVRQAPGQGLEWMGGIIPIFGTANYAQKFQGRVTITADESTSTAYMELSSLRSEDTAVYYCARGRDDYYDSSAFDYWGQGTLVTVGGGGSGGGGSGGGGSGGGGSVLTQPPSVSVAPGQTARVTCGGNKIGSYSVYWYQHKPGQAPVLVVYDDSDRPSGIPERFSGSNSGNMATLTISGVEAGDEADYYCQVWDCTTDDVIFGGGTKLTVLHHHHHH
notes: Purified soluble His6-tagged scFv expressed from pADL-20c in the E. coli periplasm; The printed VH and VL start at the second residue and stop before the end of the J region; also called mutated scFv clone (GHM33); anti-GLP-1R scFv
Q: How did the Kd [4] turn out when B3 was run?
A: 100 nM

Q: And the “fold lower Kd than the parental scFv” value [5]?
A: ~3 fold
